Results as given in patent publication US20230405146A1 (HARBOUR ANTIBODIES, published 2023).
Substitutions are numbered along the chain they refer to. Ends that are not written are not given here.

B1: 4.5c5 (antibody, V domains shown)
VH: EMQLLESGGGLVQPGGSLRLSCAASGFTFGHYAMTWVRQVPGKGLDWVSAISGGGTFTHYADSVKGRFTTSRDNSKNTLYLQMSSLRAEDTALYYCAKDQGYDYSWYYFDYWGQGTLVTVSS
VL: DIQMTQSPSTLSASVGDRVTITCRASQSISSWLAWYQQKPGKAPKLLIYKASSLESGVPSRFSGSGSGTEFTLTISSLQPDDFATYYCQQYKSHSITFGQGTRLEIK
notes: Anti-CD34 hybridoma clone from H2L2 mice
B2: 4.5 e5 (antibody, V domains shown)
VH: B1 VH
VL: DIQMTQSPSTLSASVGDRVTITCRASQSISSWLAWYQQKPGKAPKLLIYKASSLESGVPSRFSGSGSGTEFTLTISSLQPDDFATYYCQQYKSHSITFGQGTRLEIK
notes: as for B1
B3: L.1c7 (antibody, V domains shown)
VH: B1 VH with Y32F, T35S, T56S, H59Y, Y60S, Y111F
VL: DIQMTQSPSTLSASVGDRVTITCRASQSISSWLAWYQQRPGKAPKLLIYKASSLESGVPSRFSGRGSGTEFTLTISSLQPDDFATYYCQQYKSHSITFGQGTRLEIK
notes: as for B1
B4: 3.2E3 (antibody, V domains shown)
VH: QVQLVESGGGVVQPGRSLRLSCVASGFTLSLNGMHWVRQAPGKGLEWVAVIWYDGSNRYYVDSVKGRFTISRDNSKNTLYLQMNSLRAEDTAVYYCARESFLGTFDYWGQGTLVTVSS
VL: DIQLTQSPSFLSASVGDRVTITCRASQGISSYLAWYQQKPGKAPKLLIYAASTLQSGVPSRFSGSGSGTEFTLTISSLQPEDFATYYCQQLNSYPYTFGQGTKLEIK
B5: 2.4c10 (antibody, V domains shown)
VH: QVQLVESGGGVVQPGRSLRLSCAASGFTFSNYGMHWVRQAPDKGLEWVAVIWYDGSKKYYADSVKGRFTISRDDSKNTLYLQMNSLRAEDTAVYYCARWGELRYDAFDIWGQGTMVTVSS
VL: not shown
notes: as for B1
B6: 2.6f11 (antibody, V domains shown)
VH: B5 VH with N31S, D42G, A61T, D74N, Y94F, E101S, L102G, R103N, Y104F, A106S
VL: DIQMTQSPSTLSASVGDRVTITCRASQSISSWLAWYQQKPGKAPKLLISKASSLESGVPSRFSGSGSGTEFTLTISSLQPDDFATYYCQQYKNYWTFGQGTKVEIK
notes: as for B1

Legend:
[1] = molecular target: T1, CD34 peptide (region 191 aa-207aa of the extracellular domain of CD34) coupled to BSA (human, also: coupled to BSA, site not given here); assay: not stated: column headed Affinity, with no unit, method or antigen form printed; table of the CD34-peptide-positive monoclonals
T1 construct: also called CD34 specific peptide
T1 peptide: LEQNKTSSCAEFKKDRG

[2] = molecular target: T2, human Gpr56 on cells (primary blood cells; 32D-Gpr56 cell line) (human, UniProt Q9Y653 26-693); assay: flow cytometry, 32D-Gpr56 cells, α-rat AF647 secondary; the dashed histogram is taken as the control
T2 construct: whole, on cells; In the nanoparticle assays the cells were gated or isolated by CD34, not by Gpr56
T2 sequence (Q9Y653 26-693): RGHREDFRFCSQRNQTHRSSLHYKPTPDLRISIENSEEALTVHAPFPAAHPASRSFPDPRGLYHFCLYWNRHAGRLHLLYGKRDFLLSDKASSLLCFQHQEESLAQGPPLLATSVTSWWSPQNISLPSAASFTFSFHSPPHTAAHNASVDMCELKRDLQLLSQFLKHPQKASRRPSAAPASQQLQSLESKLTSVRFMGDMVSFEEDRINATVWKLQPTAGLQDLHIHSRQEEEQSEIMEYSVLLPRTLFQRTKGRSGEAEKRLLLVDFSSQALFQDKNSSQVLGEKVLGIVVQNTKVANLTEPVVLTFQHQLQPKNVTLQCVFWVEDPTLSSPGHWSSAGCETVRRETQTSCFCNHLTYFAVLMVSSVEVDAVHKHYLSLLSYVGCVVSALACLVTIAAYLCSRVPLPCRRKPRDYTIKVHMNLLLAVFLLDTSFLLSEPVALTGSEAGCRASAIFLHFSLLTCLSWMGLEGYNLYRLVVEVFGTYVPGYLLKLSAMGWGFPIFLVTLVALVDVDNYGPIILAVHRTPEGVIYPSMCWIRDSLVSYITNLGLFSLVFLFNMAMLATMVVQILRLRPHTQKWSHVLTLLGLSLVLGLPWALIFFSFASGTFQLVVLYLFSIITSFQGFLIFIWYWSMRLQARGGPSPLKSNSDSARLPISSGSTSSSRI

| Binder | Affinity [1] | binding result [2] |
| --- | --- | --- |
| B1 | 1.3e-09 |  |
| B2 | 8.2e-10 |  |
| B3 | 3.9e-09 |  |
| B4 |  | no binding (tested: 10 µg/ml) |
| B5 | 3e-08 |  |
| B6 | 2.1e-09 |  |
